Reference: patent publication US20160368985A1

Tests used:
[1] = molecular target: truncated human FcRH5 (deletion of amino acids 1-744) with N-terminal gD tag (human) (UniProt Q96RD9); assay: cell-based or functional assay
[2] = molecular target: human CD3ε (human) (UniProt P07766); assay: BIACORE and Scatchard; monovalent KD of anti-CD3 arm; legend prints 2.5 nM
Sequence of human CD3ε (human) (P07766 22-126): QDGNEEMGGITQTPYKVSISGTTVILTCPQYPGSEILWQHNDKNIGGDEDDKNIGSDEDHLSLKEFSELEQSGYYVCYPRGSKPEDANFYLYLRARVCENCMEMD

Sequence of truncated human FcRH5 (deletion of amino acids 1-744) with N-terminal gD tag (human) (Q96RD9 745-977, stated change not applied): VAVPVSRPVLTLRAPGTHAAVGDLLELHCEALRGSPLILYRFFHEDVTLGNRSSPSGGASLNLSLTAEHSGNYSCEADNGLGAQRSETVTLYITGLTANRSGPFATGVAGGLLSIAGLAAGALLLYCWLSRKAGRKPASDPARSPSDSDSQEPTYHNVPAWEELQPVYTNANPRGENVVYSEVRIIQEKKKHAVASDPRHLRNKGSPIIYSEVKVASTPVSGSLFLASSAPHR

| Substance | killing of cells expressing the truncated target, EC50 [1] [nM] | Kd [2] [nM] |
| --- | --- | --- |
| anti-gD/UCHT1.v9 TDB (bispecific antibody) | 0.19 |  |
| anti-CD3 antibody huUCHT1.v9 |  | 2 |
